In PMC6821171:

Molecular target: TF-LYAR-FL (FLAG) (human) (UniProt Q9NX58)
Experiment: EMSA
Settings: EMSA: 10 mM Tris-HCl pH 7.4, 50 mM KCl, 1 mM DTT, 2.5 % (further components not shown in material), 20 µl, 30 min, room temperature

## GGTATATCTTTCGCTCCGAGTCGGCATTTTGGGCCGCCGGGTTATTGCTGACACGCTGTCCTCTGGCGACCTGTCGTC (double strand) [H0 rDNA promoter probe (H0-BT)]
  binding: no binding
